The results in this text go back to publication PMC12222023 (Nature, 2024).

Test [1] addresses T1, His-tagged SIRT1(E230K), bacterially expressed (human, UniProt Q96EB6 1-747, E230K).
T1 sequence (looked up): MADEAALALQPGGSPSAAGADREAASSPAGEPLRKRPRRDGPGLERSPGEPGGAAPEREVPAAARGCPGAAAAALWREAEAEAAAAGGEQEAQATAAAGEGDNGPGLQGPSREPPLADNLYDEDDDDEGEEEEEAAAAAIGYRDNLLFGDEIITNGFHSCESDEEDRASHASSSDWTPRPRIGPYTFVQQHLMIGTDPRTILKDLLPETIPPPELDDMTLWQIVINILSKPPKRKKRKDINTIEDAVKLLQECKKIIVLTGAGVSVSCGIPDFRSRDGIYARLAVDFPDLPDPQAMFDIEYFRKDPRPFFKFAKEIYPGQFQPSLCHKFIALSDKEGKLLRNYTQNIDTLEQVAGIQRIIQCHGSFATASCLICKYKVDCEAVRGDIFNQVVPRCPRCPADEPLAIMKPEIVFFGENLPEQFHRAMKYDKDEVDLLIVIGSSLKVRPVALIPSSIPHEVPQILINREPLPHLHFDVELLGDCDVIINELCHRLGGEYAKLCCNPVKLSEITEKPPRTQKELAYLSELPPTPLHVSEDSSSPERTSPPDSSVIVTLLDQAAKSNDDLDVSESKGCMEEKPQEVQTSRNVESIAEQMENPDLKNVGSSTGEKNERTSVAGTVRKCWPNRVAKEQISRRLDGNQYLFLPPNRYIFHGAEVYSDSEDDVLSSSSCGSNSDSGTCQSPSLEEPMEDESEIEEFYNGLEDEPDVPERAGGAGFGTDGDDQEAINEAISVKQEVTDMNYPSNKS
The test can be described thus: SEC.

The target of test [2] is T2, His-tagged SIRT1, bacterially expressed (human, UniProt Q96EB6 1-747).
T2 sequence (looked up): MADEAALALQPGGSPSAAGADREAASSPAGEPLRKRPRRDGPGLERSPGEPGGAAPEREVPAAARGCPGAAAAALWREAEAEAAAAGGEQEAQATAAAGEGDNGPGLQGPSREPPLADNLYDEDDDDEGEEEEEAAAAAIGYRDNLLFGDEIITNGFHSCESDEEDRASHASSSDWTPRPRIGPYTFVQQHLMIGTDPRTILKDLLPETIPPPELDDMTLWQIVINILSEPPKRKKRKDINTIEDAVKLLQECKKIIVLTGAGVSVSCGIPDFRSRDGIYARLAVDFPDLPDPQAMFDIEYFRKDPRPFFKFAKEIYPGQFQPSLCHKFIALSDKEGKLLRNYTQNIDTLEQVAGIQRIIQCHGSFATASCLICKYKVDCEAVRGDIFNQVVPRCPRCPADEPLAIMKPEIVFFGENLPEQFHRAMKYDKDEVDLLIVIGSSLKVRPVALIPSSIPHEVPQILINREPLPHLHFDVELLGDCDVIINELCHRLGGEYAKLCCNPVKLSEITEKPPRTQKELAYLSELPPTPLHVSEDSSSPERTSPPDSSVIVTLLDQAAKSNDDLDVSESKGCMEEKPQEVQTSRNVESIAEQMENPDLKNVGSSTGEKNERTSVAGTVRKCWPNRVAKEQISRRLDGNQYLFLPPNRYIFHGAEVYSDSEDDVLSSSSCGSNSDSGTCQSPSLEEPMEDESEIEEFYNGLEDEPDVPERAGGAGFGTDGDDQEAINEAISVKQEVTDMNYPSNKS
Nature of the test: SEC.

B1: His-tagged TULP3, bacterially expressed (natural protein, human, UniProt O75386 1-442, looked up)
chain: MEASRCRLSPSGDSVFHEEMMKMRQAKLDYQRLLLEKRQRKKRLEPFMVQPNPEARLRRAKPRASDEQTPLVNCHTPHSNVILHGIDGPAAVLKPDEVHAPSVSSSVVEEDAENTVDTASKPGLQERLQKHDISESVNFDEETDGISQSACLERPNSASSQNSTDTGTSGSATAAQPADNLLGDIDDLEDFVYSPAPQGVTVRCRIIRDKRGMDRGLFPTYYMYLEKEENQKIFLLAARKRKKSKTANYLISIDPVDLSREGESYVGKLRSNLMGTKFTVYDRGICPMKGRGLVGAAHTRQELAAISYETNVLGFKGPRKMSVIIPGMTLNHKQIPYQPQNNHDSLLSRWQNRTMENLVELHNKAPVWNSDTQSYVLNFRGRVTQASVKNFQIVHKNDPDYIVMQFGRVADDVFTLDYNYPLCAVQAFGIGLSSFDSKLACE
In the case of B1, in test [1], the binding result is listed as “binds”.

B2: His-tagged TULP3(4G), bacterially expressed (natural protein, human, UniProt O75386 1-442, looked up)
chain: MEASRCRLSPSGDSVFHEEMMKMRQAKLDYQRLLLEKRQRKKRLEPFMVQPNPEARLRRAKPRASDEQTPLVNCHTPHSNVILHGIDGPAAVLKPDEVHAPSVSSSVVEEDAENTVDTASKPGLQERLQKHDISESVNFDEETDGISQSACLERPNSASSQNSTDTGTSGSATAAQPADNLLGDIDDLEDFVGSGAPQGVTVRCRIIRDKRGMDRGLFPTYYMYLEKEENQKIFLLAARKRKKSKTANYLISIDPVDLSREGESYVGKLRSNLMGTKFTVYDRGICPMKGRGLVGAAHTRQELAAISYETNVLGFKGPRKMSVIIPGMTLNHGQIGYQPQNNHDSLLSRWQNRTMENLVELHNKAPVWNSDTQSYVLNFRGRVTQASVKNFQIVHKNDPDYIVMQFGRVADDVFTLDYNYPLCAVQAFGIGLSSFDSKLACE
With B2, in test [2], the binding result is given as “binds”.
